Experimental data as given in patent US9931415B2, “Pyrrolobenzodiazepine-antibody conjugates” (ADC THERAPEUTICS S.A., priority 2012, dated 2018).

Columns and labels:
CD25 on Karpas299 cells = biological target: T1, CD25 on Karpas299 cells (Homo sapiens, UniProt P01589); test: Binding of HuMax-TAC to CD25 +ve cell lines by flow cytometry (Karpas299)
T1 construct: Surface CD25 expression on Karpas and SU-DHL-1 was determined by flow cytometry; endogenous in cells; host or cells: Karpas299 and SU-DHL-1 cell lines
T1 sequence (P01589 22-272): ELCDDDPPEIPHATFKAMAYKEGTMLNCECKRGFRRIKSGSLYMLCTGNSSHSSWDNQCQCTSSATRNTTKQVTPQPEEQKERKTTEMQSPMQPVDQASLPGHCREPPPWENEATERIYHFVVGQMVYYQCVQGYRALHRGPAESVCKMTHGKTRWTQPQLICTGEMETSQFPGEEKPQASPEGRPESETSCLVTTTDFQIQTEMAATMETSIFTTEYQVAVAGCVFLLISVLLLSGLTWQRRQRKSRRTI
Experimental: (§1) Karpas299 and SU-DHL-1 anaplastic large cell lymphoma (ALCL)-derived cell lines have been previously reported to express CD25 (2,3). To confirm their expression profile, CD25 surface expression was analyzed by flow cytometry. HuMax-TAC was used as a CD25-specific antibody. B12 was used as a negative control antibody.
(§2) Surface CD25 expression on Karpas and SU-DHL-1 was determined by flow cytometry. Graphs represent the average of three (Karpas299) or four independent experiments (SU-DHL-1). EC50 values are reported in ng/ml.

CD25 on SU-DHL-1 cells = biological target: T2, CD25 on SU-DHL-1 cells (Homo sapiens, UniProt P01589); test: Binding of HuMax-TAC to CD25 +ve cell lines by flow cytometry (SU-DHL-1)
T2 construct: endogenous in cells; host or cells: Karpas299 and SU-DHL-1 cell lines
T2 sequence (P01589 22-272): T1 sequence (P01589 22-272)
Experimental: as §1, §2

binding to cell surface CD25 (flow cytometry) (CD25 on Karpas299 cells): specifically bound | EC50 (CD25 on Karpas299 cells; flow cytometry, average of three experiments): 0.02021 µg/mL | binding to cell surface CD25 (flow cytometry) (CD25 on SU-DHL-1 cells): specifically bound | EC50 (CD25 on SU-DHL-1 cells; flow cytometry, average of four experiments): 0.03406 µg/mL
Substance: HuMax-TAC: anti-CD25 antibody comprising a VH domain of SEQ ID NO. 1 and a VL domain of SEQ ID NO. 2
